Experimental data as given in patent publication US20210070875A1.

Assays:
Experiment in all cases: ELISA, polypeptide coated at 1.0 µg/mL
C5aR polypeptide-05 = C5aR polypeptide-05 (UniProt P21730)
C5aR polypeptide-04 = C5aR polypeptide-04 (UniProt P21730)
[1] = target: C5aR extracellular N-terminus polypeptide (UniProt P21730)
C5aR polypeptide-03 = C5aR polypeptide-03 (UniProt P21730)

OD450 nm (C5aR polypeptide-05) [OD450 nm] | OD450 nm (C5aR polypeptide-04) [OD450 nm] | OD450 nm [1] [OD450 nm] | OD450 nm (C5aR polypeptide-03) [OD450 nm] | Binder
0.29 | 2.34 | 0.05 | 0.06 | 2A12B2B2 (antibody, V domains shown) VH: QVQLQQPGADLVKPGASVKMSCKASGYILTTYWITWVKQRPGQGLEWIGDIHPGSGSTKYNEKFKSKATLTVDTSSSTAYMQLTRLSSEDSAVYYCARRDYWGQGTTLTVSS VL: DIQMTQTTSSLSASLGDKVTISCRASQDISNYLSWYQQKPDGTVKLLIYWISRLHSGVPSRFSGSGSGTDFSLTISNLEQEDIATYFCQQGNSLPPTFGGGTKLEVK
0.08 | 0.1 | 2.5 | 0.05 | 8B5D1A9 (antibody, V domains shown) VH: QVQLKQSGAELVKPGASVKISCKTSGYIFTDYYINWMKQRPGQGLEWIGKIGPGSGTTFYNEKFKGKATLTADKSSTTLYMQLSSLTAEDSAVYFCTRRGYYSSSYFYWGQGTTLTVSS VL: DIVMTQSPSSLSVSAGEKVIMSCKSSQSLLNSERQKNYLAWYQQKPGQSPKLLIYGASTRESGVPDRFTGSGSGTDFTLTISSVQAEDLAVYYCLNDHSYPLTFGAGTKLELK
0.06 | 0.1 | 0.12 | 0.08 | 43E8F5B6 (antibody, V domains shown) VH: EVQLQQSGPELVKPGASVKISCKASGYTFTDYYMSWMKQSHGKSLEWIGDINPNNGDNIYNQKFKGKATLTVDRSSSTAYMDLRSLTSEDSAVYYCARWYYYVSSFSYWYFDVWGTGTTVTVSS VL: EIVLTQSPTTMAASPGEKITITCSATSSINSNYLHWYQQKPGFSPKLLIYRTSNLASGVPARFSGSGSGTSYSLTIGTMEAEDVATYYCQQGRTIPRTFGSGTKLEIK
0.56 | 2.52 | 0.22 | 0.31 | 5F8E2C11 (antibody, V domains shown) VH: QVQLRQSGPGLVQPSQSLSITCTVSGFSLTSYGVHWVRQSPGKGLEWLGVIWSGGSTDYNAAFISRLSISKDYSKSQIFLTMNSLQTDDTAIYYCARNSRLGNCFDYWGQGTTLTVSS VL: DIVMSQSPSSLAVSAGEKVTMSCKSSQSLLNSRTRKNYLAWYQQKPGQSPKLLIYWASTRESGVPDRFTGSGSGTDFTLTISSVQAEDLAVYYCKQSYNLPAFGGGTKLEIK
0.41 | 2.46 | 0.06 | 0.06 | 9D5A12G7 (antibody, V domains shown) VH: QVQLKQSGPGLVQPSQSLSITCTVSGFSLTSYGVHWVRQSPGKGLEWLGVIWSGGSTDYNAAFISRLSISKDNSKSQVFFKMNSLQADDTAIYYCARNGLLGNAMDYWGQGTSVTVSS VL: DIVMSQSPSSLAVSAGEKVTMSCKSSQSLLSSRTRKNYLAWYQQKPGQSPKLLIYWASTRESGVPDRFTGSGSGTDFTLTISSVQTEDLAVYYCKQSYNLLTFGAGTTLELK
